Data on two molecules can be found in article PMC9169624.

One data set deals with Human RPA (hRPA) (Homo sapiens, UniProt P27694;P15927;P35244 1-616;1-270;1-121). The experiment in a line: EMSA; human RPA alone; EMSA: 2.5 nM DNA (5 nM in Fig. S1F); PIFE: 2 nM DNA for Kd; buffer, salt, pH and temperature not in the supplied material; optical tweezers at room temperature. The following applies: protein: recombinant; copies: 1;1;1; label: 5'-Cy5; single strand. (In general: In EMSA bound probe runs differently from free probe, usually more slowly.)
Chain of Human RPA (hRPA) (P27694 whole entry, chain 1 of 3): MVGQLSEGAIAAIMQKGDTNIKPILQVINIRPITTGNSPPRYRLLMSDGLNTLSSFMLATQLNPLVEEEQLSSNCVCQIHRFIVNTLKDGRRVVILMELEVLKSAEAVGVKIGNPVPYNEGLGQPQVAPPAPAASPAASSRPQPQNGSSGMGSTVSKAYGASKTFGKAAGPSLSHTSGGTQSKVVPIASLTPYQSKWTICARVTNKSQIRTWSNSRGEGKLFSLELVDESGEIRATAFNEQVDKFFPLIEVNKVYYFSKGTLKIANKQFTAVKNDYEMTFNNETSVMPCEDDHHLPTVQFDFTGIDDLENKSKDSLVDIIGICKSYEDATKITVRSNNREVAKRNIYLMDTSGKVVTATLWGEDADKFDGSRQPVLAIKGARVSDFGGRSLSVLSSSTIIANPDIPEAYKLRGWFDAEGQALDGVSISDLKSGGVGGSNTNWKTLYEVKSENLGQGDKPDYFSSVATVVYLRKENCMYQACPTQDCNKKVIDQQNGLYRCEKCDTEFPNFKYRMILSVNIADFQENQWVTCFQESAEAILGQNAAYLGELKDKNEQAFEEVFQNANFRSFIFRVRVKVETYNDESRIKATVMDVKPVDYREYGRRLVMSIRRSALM
Chain of Human RPA (hRPA) (P15927 whole entry, chain 2 of 3): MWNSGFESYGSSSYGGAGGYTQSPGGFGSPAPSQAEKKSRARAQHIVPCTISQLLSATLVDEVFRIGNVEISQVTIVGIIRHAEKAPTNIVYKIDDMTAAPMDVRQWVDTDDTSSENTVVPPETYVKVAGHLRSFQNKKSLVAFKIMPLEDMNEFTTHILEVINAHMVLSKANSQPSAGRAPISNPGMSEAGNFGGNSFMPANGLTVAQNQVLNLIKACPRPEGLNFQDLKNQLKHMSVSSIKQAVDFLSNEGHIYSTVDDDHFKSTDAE
Chain of Human RPA (hRPA) (P35244 whole entry, chain 3 of 3): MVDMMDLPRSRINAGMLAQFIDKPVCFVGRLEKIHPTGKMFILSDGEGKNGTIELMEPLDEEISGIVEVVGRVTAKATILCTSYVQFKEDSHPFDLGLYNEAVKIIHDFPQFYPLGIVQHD

Data set [1] concerns the target HELB (DNA helicase B);Human RPA (hRPA) (Homo sapiens;Homo sapiens, UniProt Q8NG08;P27694;P15927;P35244 1-1087;1-616;1-270;1-121, |). As to the kind of experiment: EMSA; HELB supershifts the human RPA-DNA complex; EMSA: 2.5 nM DNA (5 nM in Fig. S1F); PIFE: 2 nM DNA for Kd; buffer, salt, pH and temperature not in the supplied material; optical tweezers at room temperature. The following applies: protein: recombinant;recombinant; copies: 1;1;1;1; label: 5'-Cy5; single strand.

In the next data set the target is HELB (DNA helicase B) (Homo sapiens, UniProt Q8NG08 1-1087). The experiment in a line: PIFE fluorescence; EMSA: 2.5 nM DNA (5 nM in Fig. S1F); PIFE: 2 nM DNA for Kd; buffer, salt, pH and temperature not in the supplied material; optical tweezers at room temperature. The conditions noted are these: protein: recombinant; label: 3'-Cy3; single strand.
Chain of HELB (DNA helicase B) (Q8NG08 whole entry): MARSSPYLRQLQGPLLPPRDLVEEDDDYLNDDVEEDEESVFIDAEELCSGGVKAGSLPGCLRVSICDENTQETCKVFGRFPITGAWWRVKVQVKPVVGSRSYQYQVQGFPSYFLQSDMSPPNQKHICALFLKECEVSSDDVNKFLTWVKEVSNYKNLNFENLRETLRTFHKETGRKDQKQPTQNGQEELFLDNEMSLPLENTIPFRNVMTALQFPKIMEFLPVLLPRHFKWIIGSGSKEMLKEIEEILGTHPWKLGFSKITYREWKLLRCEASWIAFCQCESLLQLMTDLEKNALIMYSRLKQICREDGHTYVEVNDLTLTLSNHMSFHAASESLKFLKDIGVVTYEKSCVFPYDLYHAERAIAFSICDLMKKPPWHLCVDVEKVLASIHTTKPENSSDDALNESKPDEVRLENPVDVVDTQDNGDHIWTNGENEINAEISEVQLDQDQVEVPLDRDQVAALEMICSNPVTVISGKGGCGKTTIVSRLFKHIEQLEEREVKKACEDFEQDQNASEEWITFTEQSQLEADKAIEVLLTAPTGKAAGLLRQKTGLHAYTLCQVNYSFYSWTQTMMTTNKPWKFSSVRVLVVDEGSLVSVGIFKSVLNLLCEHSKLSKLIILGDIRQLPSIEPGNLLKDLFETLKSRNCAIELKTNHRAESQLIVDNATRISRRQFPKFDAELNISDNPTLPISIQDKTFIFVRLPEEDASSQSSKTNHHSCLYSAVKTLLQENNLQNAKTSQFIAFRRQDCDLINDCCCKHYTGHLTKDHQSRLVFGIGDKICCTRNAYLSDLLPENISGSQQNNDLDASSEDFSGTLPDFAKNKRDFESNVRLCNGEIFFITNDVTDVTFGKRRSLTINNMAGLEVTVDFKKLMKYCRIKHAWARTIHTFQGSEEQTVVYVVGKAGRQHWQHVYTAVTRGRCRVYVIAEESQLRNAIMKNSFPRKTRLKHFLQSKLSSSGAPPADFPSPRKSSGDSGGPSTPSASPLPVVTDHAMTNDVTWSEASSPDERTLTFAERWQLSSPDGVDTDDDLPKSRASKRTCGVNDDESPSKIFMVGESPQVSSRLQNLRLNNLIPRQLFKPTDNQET

The Kd is the free concentration of one partner at which half of the binding sites on the other are occupied at equilibrium, for simple one-to-one binding.

Chain of HELB (DNA helicase B);Human RPA (hRPA) (Q8NG08 whole entry, chain 1 of 4): as the sequence (Q8NG08 whole entry) above
Chain of HELB (DNA helicase B);Human RPA (hRPA) (P27694 whole entry, chain 2 of 4): as the sequence (P27694 whole entry, chain 1 of 3) above
Chain of HELB (DNA helicase B);Human RPA (hRPA) (P15927 whole entry, chain 3 of 4): as the sequence (P15927 whole entry, chain 2 of 3) above
Chain of HELB (DNA helicase B);Human RPA (hRPA) (P35244 whole entry, chain 4 of 4): as the sequence (P35244 whole entry, chain 3 of 3) above

B1: EMSA 25mer (ssDNA)
DNA: GCTTGCTAGGACGGATCGCTCGAGG
B1: the binding result (with Human RPA (hRPA); in data set [1]) was “binds” throughout.

B2: poly(dT) 30mer (ssDNA)
DNA: TTTTTTTTTTTTTTTTTTTTTTTTTTTTTT
In the case of B2, in the data set with HELB (DNA helicase B), the Kd is around 5 nM.
